Data from US20260207766A1 (Bristol-Myers Squibb, published 2026).
Numbering of substitutions follows the chain as printed.

T1: human CEACAM7 (R&D Systems catalog #9010-CM-050) (human, UniProt Q14002 36-242, limits assumed)
T1 sequence (looked up): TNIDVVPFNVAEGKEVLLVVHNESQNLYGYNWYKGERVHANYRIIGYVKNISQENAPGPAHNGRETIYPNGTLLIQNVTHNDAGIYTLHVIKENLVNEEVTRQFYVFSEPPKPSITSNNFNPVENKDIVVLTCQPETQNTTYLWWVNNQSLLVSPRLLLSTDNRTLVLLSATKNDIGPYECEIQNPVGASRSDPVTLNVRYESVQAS

T2: human CEACAM8 (R&D Systems catalog #9639-CM-050) (human, UniProt P31997 35-320, limits assumed)
T2 sequence (looked up): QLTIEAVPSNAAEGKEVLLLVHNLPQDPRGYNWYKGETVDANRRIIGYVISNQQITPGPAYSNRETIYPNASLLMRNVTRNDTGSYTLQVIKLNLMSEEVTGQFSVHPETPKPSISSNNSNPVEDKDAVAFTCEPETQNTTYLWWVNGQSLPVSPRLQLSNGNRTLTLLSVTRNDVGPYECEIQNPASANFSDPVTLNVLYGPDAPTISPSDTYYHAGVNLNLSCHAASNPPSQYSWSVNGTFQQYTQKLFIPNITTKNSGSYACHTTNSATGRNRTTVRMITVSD

T3: human CEACAM5 on cells (human, UniProt P06731 35-685)
T3 sequence: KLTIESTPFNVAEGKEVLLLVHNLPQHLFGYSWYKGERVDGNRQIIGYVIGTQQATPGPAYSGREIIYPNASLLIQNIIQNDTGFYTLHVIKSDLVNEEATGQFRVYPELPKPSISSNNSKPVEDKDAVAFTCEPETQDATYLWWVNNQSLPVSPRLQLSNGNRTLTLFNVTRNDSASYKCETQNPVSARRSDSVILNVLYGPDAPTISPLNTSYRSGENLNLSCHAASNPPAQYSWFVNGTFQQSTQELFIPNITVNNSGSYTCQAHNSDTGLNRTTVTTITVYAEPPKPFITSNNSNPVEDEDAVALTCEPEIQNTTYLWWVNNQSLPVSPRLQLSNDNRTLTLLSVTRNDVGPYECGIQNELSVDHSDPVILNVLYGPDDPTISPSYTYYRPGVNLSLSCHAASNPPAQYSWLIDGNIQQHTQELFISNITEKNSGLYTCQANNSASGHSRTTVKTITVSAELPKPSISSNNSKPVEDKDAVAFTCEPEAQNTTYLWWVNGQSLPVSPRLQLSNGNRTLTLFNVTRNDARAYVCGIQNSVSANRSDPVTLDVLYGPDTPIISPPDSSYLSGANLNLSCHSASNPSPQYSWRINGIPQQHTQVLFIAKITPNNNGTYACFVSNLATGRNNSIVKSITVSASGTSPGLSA

T4: human CEACAM1 on CHO-S cells (human, UniProt P13688 35-526)
T4 construct: whole, on cells; also called CHO-S-huCEACAM1
T4 sequence (looked up): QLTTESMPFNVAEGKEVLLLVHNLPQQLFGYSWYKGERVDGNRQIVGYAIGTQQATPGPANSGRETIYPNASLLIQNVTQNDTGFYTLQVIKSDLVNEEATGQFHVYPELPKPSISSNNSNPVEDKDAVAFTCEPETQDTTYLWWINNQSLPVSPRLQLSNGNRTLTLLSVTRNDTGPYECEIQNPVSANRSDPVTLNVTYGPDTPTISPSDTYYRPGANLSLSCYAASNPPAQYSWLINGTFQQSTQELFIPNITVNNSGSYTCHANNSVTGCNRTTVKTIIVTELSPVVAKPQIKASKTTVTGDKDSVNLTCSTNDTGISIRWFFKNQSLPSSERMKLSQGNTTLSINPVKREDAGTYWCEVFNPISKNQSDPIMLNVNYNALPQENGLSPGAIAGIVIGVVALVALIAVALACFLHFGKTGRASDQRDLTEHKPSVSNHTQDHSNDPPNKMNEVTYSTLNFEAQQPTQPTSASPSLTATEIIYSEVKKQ

T5: human CEACAM6 on HCT116 cells (human, UniProt P40199 35-320)
T5 construct: whole, on cells; also called HCT116-huCEACAM6
T5 sequence (looked up): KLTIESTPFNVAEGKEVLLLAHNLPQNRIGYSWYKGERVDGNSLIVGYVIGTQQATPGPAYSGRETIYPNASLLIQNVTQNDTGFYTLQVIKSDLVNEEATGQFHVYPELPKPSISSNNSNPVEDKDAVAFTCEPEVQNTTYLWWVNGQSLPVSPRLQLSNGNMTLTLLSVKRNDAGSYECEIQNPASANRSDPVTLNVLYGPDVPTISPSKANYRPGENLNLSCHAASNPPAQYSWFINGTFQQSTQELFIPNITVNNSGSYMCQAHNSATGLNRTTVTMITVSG

T6: full-length human CEACAM5 (recombinant, internally generated) (human, UniProt P06731 35-685, limits assumed)
T6 construct: Printed only as 'full-length'; also called Full-length huCEACAM5; biotinylated human CEACAM5
T6 sequence: T3 sequence

B1: MBP003 (antibody, V domains shown)
VH: QVQLVESGGGVVQPGRSLRLSCAASGITFSSHGMHWVRQAPGKGLEWVTFISYDGSYKSYVDSVKGRFTISRDNSKNTLYLQMNSLRAEDTAVYYCATGLTGTGAFDIWGQGTMVTVSS
VL: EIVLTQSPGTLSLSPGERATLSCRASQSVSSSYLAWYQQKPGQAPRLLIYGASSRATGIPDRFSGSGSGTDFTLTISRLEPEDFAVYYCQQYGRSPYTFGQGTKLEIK
notes: also called hIgG1 form of MBP004
B2: MBP002 (antibody, IgG1, V domains shown)
VH: B1 VH with G104N, F106L
VL: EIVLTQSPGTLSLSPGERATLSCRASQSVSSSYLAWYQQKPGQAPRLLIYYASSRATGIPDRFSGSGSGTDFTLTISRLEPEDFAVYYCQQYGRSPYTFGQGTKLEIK
notes: also called hIgG1 form of MBP008
B3: MBP004 (antibody, V domains shown)
VH: B1 VH
VL: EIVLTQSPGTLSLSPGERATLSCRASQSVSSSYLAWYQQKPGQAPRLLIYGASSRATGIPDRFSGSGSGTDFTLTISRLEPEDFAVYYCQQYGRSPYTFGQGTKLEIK
B4: MBP007 (antibody, IgG1, V domains shown)
VH: B1 VH with T28Y, F106N
VL: EIVLTQSPGTLSLSPGERATLSCRASQSVSSSYLAWYQQKPGQAPRLLIYGASSRATGIPDRFSGSGSGTDFTLTISRLEPEDFAVYYCQQNKPSPYTFGQGTKLEIK
B5: MBP010 (antibody, IgG1, V domains shown)
VH: B1 VH with G55S
VL: B4 VL with P94R
B6: MBP008 (antibody, IgG1, V domains shown)
VH: B1 VH with G104N, F106L
VL: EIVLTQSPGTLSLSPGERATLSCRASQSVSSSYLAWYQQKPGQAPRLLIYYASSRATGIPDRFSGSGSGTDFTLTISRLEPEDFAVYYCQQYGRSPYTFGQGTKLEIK
B7: MBP005 (antibody, V domains shown)
VH: B1 VH with T28Y
VL: not shown
B8: MBP011 (antibody, IgG1, V domains shown)
VH: B1 VH with Y57I
VL: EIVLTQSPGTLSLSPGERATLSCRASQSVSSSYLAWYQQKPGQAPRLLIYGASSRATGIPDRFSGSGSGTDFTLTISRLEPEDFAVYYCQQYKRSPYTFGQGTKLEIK
B9: MBP006 (antibody, V domains shown)
VH: B1 VH with K58I, F106N
VL: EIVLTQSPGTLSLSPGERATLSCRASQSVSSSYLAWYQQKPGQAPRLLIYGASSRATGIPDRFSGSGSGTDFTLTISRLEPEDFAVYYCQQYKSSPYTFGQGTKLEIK
B10: MBP009 (antibody, IgG1, V domains shown)
VH: B1 VH with T28Y
VL: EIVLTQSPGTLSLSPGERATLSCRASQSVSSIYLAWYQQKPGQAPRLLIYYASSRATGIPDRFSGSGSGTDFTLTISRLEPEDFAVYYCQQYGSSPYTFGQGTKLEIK

Molecular target: T1, human CEACAM7 (R&D Systems catalog …)
Experiment: SPR

Row | binding result | Binder
1 | no binding | B1
2 | no binding | B2

Molecular target: T2, human CEACAM8 (R&D Systems catalog …)
Experiment: SPR

Row | binding result | Binder
3 | no binding | B1
4 | no binding | B2

Molecular target: T3, human CEACAM5 on cells
Experiment: cell-based or functional assay

Row | Binder | Ls174T 5-day cytotoxicity (AUC), antibody conjugated to Compound A' | MKN45 5-day cytotoxicity (AUC), antibody conjugated to Compound A' | Ls174T 5-day cytotoxicity (AUC) | MKN45 5-day cytotoxicity (AUC)
5 | B1 | 18500 | 24400 |  | 
6 | B3 |  |  | 865 | 2380
7 | B4 |  |  | 834 | 2070
8 | B5 |  |  | 910 | 1360
9 | B6 |  |  | 1140 | 2200
10 | B7 |  |  | 964 | 2350
11 | B8 |  |  | 939 | 1770
12 | B9 |  |  | 902 | 2440
13 | B2 | 18900 | 24100 |  | 
14 | B10 |  |  | 1040 | 2200

Molecular target: T3, human CEACAM5 on cells
Experiment: FACS on BxPC3 cells

Row | EC50 | Binder
15 | 1.9 nM | B1
16 | 1.9 nM | B2

Molecular target: T3, human CEACAM5 on cells
Experiment: FACS on MKN45 cells

Row | EC50 | Binder
17 | 2.4 nM | B1
18 | 2.1 nM | B2

Molecular target: T3, human CEACAM5 on cells
Experiment: FACS on LS174T cells

Row | EC50 | Binder
19 | 1.7 nM | B1
20 | 1.5 nM | B2

Molecular target: T4, human CEACAM1 on CHO-S cells
Experiment: flow cytometry on CHO-S (CEACAM-1) cells

Row | binding result | Binder
21 | no binding (tested: 300 nM) | B1
22 | no binding (tested: 300 nM) | B2

Molecular target: T5, human CEACAM6 on HCT116 cells
Experiment: flow cytometry on HCT-116 (CEACAM-6) cells

Row | binding result | Binder
23 | no binding (tested: 300 nM) | B1
24 | no binding (tested: 300 nM) | B2

Molecular target: T6, full-length human CEACAM5 (recombinant, …)
Experiment: SPR Biacore, mAb captured on anti-human Fc, full-length antigen analyte, 1:1 fit
Excerpt: The BIACORE® instrument was primed with 1×HBSP+ running buffer (Cytiva catalog no. BR100671). The CM5 chip (Cytiva catalog no. 29149604) was equilibrated to room temperature, and the BIACORE® instrument was re-primed. A human antibody Fc capture kit (Cytiva catalog no. 29234600) was utilized for this analysis. The human antibody Fc capture reagent was immobilized to both flow cells in all 8 flow channels of the CM5 chip via amine-coupling using the following conditions. Immobilization was performed at a temperature of 25° C. The anti-human Fc capture reagent was diluted to a concentration of 25 μg/mL in acetate pH5 buffer. The chip surface was activated by injecting a mixture of 1-ethyl-3-(-3-dimethylaminopropyl) carbodiimide hydrochloride (EDC) and N-hydroxy succinimide (NHS) for 420 seconds at a rate of 10 microliters per minute (uL/min). A concentration (25 ug/mL) of anti-human Fc capture reagent was then injected on the surface for 420 seconds at a rate of 10 uL/min. The remaining chip surface was blocked by injecting ethanolamine for 420 seconds at a rate of 10 uL/min.
The SPR kinetics against full-length human and cyno CEACAM5 were set up as follows. The antibody capture was performed by diluting the antibodies to a concentration of 10 nM in HBSP+ buffer. The 10 nM mAbs were captured for 20 seconds at 5 uL/min to achieve capture levels of approximately 100 RU. […] The association rate was 180 seconds at 30 uL/min. The dissociation rate was 600 seconds at 30 uL/min. Regeneration was performed using two injections of 3M magnesium chloride MgCl₂ for 30 seconds at 30 uL/min. A data fit was performed using a 1:1 binding model with global Rmax. Rmax reflects the maximal response when all ligand is occupied.

Row | Kd | koff | kon | Binder
25 | 23.4 nM | 0.000982 s⁻¹ | 42000 M⁻¹ s⁻¹ | B1
26 | 17.3 nM | 0.00131 s⁻¹ | 76000 M⁻¹ s⁻¹ | B3
27 | 21.5 nM | 0.00171 s⁻¹ | 79600 M⁻¹ s⁻¹ | B4
28 | 20.4 nM | 0.00102 s⁻¹ | 50000 M⁻¹ s⁻¹ | B5
29 | 5.91 nM | 0.000527 s⁻¹ | 89200 M⁻¹ s⁻¹ | B6
30 | 14.2 nM | 0.000671 s⁻¹ | 47100 M⁻¹ s⁻¹ | B8
31 | 6.03 nM | 0.000513 s⁻¹ | 85100 M⁻¹ s⁻¹ | B9
32 | 5.26 nM | 0.000228 s⁻¹ | 43300 M⁻¹ s⁻¹ | B2
33 | 2.78 nM | 0.00048 s⁻¹ | 172000 M⁻¹ s⁻¹ | B10
